Test results taken from publication PMC10334784.
pKd: −log10 of the molar value.

Target: HCoV-OC43 nucleocapsid (N) protein, 2X-StrepTag tagged (HCoV-OC43) (UniProt P33469)
Experiment: BLI

Chain of HCoV-OC43 nucleocapsid (N) protein, 2X-StrepTag tagged (HCoV-OC43) (P33469 whole entry): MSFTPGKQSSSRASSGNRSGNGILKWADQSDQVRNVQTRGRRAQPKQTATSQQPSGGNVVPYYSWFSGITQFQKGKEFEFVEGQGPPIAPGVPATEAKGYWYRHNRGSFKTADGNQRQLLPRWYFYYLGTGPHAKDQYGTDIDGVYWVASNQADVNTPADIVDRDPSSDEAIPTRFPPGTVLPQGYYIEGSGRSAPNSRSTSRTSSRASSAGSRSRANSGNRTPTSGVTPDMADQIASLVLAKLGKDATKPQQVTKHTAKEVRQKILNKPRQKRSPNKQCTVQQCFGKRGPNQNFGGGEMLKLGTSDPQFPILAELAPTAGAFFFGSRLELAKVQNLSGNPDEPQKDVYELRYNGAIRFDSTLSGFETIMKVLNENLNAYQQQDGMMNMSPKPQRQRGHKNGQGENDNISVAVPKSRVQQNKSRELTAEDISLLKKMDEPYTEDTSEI

Substance: CXCL4 (ligand)
- pKd: 6.77
- koff: 0.00088 s⁻¹
- kon: 5300 M⁻¹ s⁻¹
